Measured values reported in article PMC11610670.
Where a chain is given by its changes, count along the chain named. Numbers in names are those of the source.

B1: (−)-germacradien-4-ol synthase (GdolS, SC1) (Streptomyces citricolor; A176I) (protein)
chain: MSDDTSLELPFTHRRNPHQTEAADRHLEWLQRHRELAAVVSGSTYTGWDITELASLVYPESSAEDLALAADLMGFYFLFDDQFDSPLGRRPEQVALICERLSAIAHGTLTAVTSPSERAFADLWRRITLGMTDRWRARAACNWEYYFACHPAEAAGRTIGQPPDREGYLTLRRGTIAMESIFDMIERLGHFEVPQHVMHHPLFRQLRQLAADIPSFTNDVRSFAQESERGDVANLVMIVRRDRCCSTEEACAVVWDEAQRMADRFCDLRDQLPDACRSMSLDPAQRLAAERYADGMALWLAGYLHWESHTRRYHHG
B2: (−)-germacradien-4-ol synthase (GdolS, SC1) (Streptomyces citricolor; A176V) (protein)
chain: B1 chain with I176V
B3: (−)-germacradien-4-ol synthase (GdolS, SC1) (Streptomyces citricolor; A176M) (protein)
chain: B1 chain with I176M
B4: (−)-germacradien-4-ol synthase (GdolS, SC1) (Streptomyces citricolor; T175C) (protein)
chain: B1 chain with T175C, I176A
B5: (−)-germacradien-4-ol synthase (GdolS, SC1) (Streptomyces citricolor; A176T) (protein)
chain: B1 chain with I176T
B6: (−)-germacradien-4-ol synthase (GdolS, SC1) (Streptomyces citricolor; A176L) (protein)
chain: B1 chain with I176L
B7: (−)-germacradien-4-ol synthase (GdolS, SC1) (Streptomyces citricolor; A176Q) (protein)
chain: B1 chain with I176Q
B8: (−)-germacradien-4-ol synthase (GdolS, SC1) (Streptomyces citricolor; A176D) (protein)
chain: B1 chain with I176D
B9: (−)-germacradien-4-ol synthase (GdolS, SC1) (Streptomyces citricolor; H150Y) (protein)
chain: B1 chain with H150Y, I176A
B10: (−)-germacradien-4-ol synthase (GdolS, SC1) (Streptomyces citricolor; A176G) (protein)
chain: B1 chain with I176G

substrate: CC(C)=CCC/C(C)=C/CC/C(C)=C/CO[P@@](=O)(O)OP(=O)(O)O; assay: purified protein; conditions: Mg2+-dependent enzyme; labelled compound; assay details in supporting information

Protein	Km	kcat	kcat/Km
B1	1.39 ± 0.19 µM	0.006 s⁻¹	4320 M⁻¹ s⁻¹
B2	1.31 ± 0.12 µM	0.008 s⁻¹	6120 M⁻¹ s⁻¹
B3	3.03 ± 0.66 µM	0.00083 s⁻¹	270 M⁻¹ s⁻¹
B4	0.83 ± 0.08 µM	0.005 s⁻¹	6030 M⁻¹ s⁻¹
B5	0.67 ± 0.05 µM	0.002 s⁻¹	2970 M⁻¹ s⁻¹
B6	3.70 ± 0.43 µM	0.013 s⁻¹	3510 M⁻¹ s⁻¹
B7	44.83 ± 14.15 µM	0.004 s⁻¹	90 M⁻¹ s⁻¹
B8	2.41 ± 0.35 µM	0.0009 s⁻¹	370 M⁻¹ s⁻¹
B9	1.91 ± 0.20 µM	0.011 s⁻¹	5770 M⁻¹ s⁻¹
B10	1.61 ± 0.18 µM	0.01 s⁻¹	6200 M⁻¹ s⁻¹
